One molecule from patent US11844843 (DYNE THERAPEUTICS, dated 2023) can be followed below.

Test [1] deals with T1, recombinant human TfR1 (transferrin receptor protein 1) (human, UniProt P02786 89-760).
T1 construct: Recombinant protein in SPR and ELISA; they were assigned to this molecule; also called hTfR1; huTfR1
Briefly: surface plasmon resonance. Background: SPR reads the build-up and loss of mass on a sensor chip optically.

Test [2] has as its target T2, recombinant cynomolgus monkey (Macaca fascicularis) TfR1 (cynomolgus monkey (Macaca fascicularis), UniProt Q5RDH6 87-760 (Pongo abelii entry), limits assumed).
T2 construct: Recombinant protein; also called cTfR1; cyTfR1
T2 chain: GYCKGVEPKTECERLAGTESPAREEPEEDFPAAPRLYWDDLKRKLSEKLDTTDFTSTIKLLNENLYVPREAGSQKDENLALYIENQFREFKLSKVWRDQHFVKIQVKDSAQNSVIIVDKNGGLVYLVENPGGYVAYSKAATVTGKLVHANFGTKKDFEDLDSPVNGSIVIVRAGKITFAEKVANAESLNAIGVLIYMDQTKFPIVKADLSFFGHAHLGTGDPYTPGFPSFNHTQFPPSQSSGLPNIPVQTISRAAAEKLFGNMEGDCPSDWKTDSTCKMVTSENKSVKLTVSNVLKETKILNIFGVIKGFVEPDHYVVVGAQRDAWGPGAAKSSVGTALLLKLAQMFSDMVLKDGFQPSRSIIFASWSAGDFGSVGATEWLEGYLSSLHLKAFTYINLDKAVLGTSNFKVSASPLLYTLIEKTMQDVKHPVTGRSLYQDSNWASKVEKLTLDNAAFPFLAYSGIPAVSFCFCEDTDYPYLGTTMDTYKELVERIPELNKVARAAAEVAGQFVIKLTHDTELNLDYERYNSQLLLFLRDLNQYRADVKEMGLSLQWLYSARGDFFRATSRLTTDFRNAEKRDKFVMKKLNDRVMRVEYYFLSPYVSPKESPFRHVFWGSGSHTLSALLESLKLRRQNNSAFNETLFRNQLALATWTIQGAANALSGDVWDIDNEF
The experiment in a line: surface plasmon resonance.

The target in test [3] is T1, recombinant human TfR1 (transferrin …). Briefly: Table 14, unconjugated Fab, d9 (after 9 days at 40 C); method not named.
Test [4] has as its target T2, recombinant cynomolgus monkey (Macaca …). The test is described as above.
The target of test [5] is T3, recombinant human TfR2 (transferrin receptor 2) (human, UniProt Q9UP52 105-801, limits assumed).
T3 construct: Recombinant protein in ELISA and SPR; also called hTfR2
T3 sequence (looked up): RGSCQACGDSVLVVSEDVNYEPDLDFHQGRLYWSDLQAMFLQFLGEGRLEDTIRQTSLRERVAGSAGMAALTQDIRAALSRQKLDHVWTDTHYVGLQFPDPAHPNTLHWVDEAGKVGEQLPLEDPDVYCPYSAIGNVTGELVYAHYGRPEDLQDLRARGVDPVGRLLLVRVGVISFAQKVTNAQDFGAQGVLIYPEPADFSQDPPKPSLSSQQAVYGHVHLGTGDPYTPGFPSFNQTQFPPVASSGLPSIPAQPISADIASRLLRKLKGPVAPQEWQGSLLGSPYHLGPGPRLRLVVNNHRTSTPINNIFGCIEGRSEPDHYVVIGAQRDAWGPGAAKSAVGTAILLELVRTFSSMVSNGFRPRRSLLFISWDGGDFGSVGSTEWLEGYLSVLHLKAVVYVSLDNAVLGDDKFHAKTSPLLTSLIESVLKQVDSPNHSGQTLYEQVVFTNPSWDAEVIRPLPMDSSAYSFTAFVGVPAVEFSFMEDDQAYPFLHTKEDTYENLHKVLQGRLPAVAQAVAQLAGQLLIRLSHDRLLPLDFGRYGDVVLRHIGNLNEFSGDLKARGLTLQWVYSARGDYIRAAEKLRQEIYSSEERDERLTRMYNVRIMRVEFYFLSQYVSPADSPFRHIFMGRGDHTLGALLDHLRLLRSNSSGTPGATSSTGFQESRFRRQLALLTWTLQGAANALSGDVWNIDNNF
Briefly: ELISA on plate-coated recombinant human TfR2, anti-(H+L) IgG-A488 secondary. How it is done: Recombinant human TfR2 protein was plated overnight at […] and was blocked for 1 hour with 1% bovine serum albumin (BSA) in PBS. Serial dilutions of the Fab or a positive control anti-TfR2 antibody were added in 0.5% BSA/TBST for 1 hour. After washing, anti-(H+L) IgG-A488 (Invitrogen #MA5-25932) fluorescent secondary antibody was added at a 1:500 dilution in 0.5% BSA/TBST and the plate was incubated for 1 hour. Relative fluorescence was measured using a Biotek Synergy plate reader at 495 nm excitation and 520 nm emission.

The target in test [6] is T2, recombinant cynomolgus monkey (Macaca …). The experiment in a line: ELISA on plate-coated recombinant cTfR1, fluorescent anti-(H+L) IgG-A488 detection, % normalized RFUs. On the procedure: To measure binding of humanized anti-TfR antibodies to TfR1, ELISAs were conducted. High binding, black, flat bottom, 96 well plates (Corning #3925) were first coated with 100 μL/well of recombinant huTfR1 at 1 μg/mL in PBS and incubated at 4° C. overnight. Wells were emptied and residual liquid was removed. Blocking was conducted by adding 200 μL of 1% BSA (w/w) in PBS to each well. Blocking was allowed to proceed for 2 hours at room temperature on a shaker at 30) rpm. After blocking, liquid was removed and wells were washed three times with 300 μL of TBST. Anti-TfR1 antibodies were then added in 0.5% BSA/TBST in triplicate in an 8 point serial dilution (dilution range 5 μg/mL-5 ng/mL). A positive control and isotype controls were also included on the ELISA plate. The plate was incubated at room temperature on an orbital shaker for 60 minutes at 300 rpm, and the plate was washed three times with 300 μL of TBST. Anti-(H+L)IgG-A488 (1:500) (Invitrogen #A11013) was diluted in 0.5% BSA in TBST, and 100 μL was added to each well. The plate was then allowed to incubate at room temperature for 60 minutes at 300 rpm on orbital shaker. The liquid was removed and the plate was washed four times with 300 μL of TBST. […] Data was recorded and analyzed for $EC50$. […]

B1: humanized anti-TfR Fab 3M12 VH4/Vκ3 (Fab, V domains shown)
VH: QVQLQESGPGLVKPSQTLSLTCTVTGYSITSGYYWNWIRQPPGKGLEWIGYITFDGANNYNPSLKNRVSISRDTSKNQFSLKLSSVTAEDTATYYCTRSSYDYDVLDYWGQGTTVTVSS
VL: DIQMTQSPSSLSASVGDRVTITCRASQDISNFLNWYQQKPGQPVKLLIYYTSRLHSGVPSRFSGSGSGTDFTLTISSLQPEDFATYYCQQGHTLPYTFGQGTKLEIKR
notes: also called 3M12 (VH4/Vk3); anti-TfR Fab 3M12 VH4/Vk3
As to B1, in test [1], the Kd came out at 0.768 nM, the koff was 0.000127 s⁻¹ and the kon was determined as 166000 M⁻¹ s⁻¹. Further, in test [2], the Kd was 5.18 nM, the koff is 0.000476 s⁻¹ and the kon worked out at 91900 M⁻¹ s⁻¹. Also, the Binding affinity in test [3] amounted to 0.28 nM. Moreover, the Binding affinity in test [4] is 16.4 nM. In test [5], the binding result is reported as “no binding (tested: 500 nM)”. Besides, the EC50 in test [6] stood at 9.9 nM.

For orientation: Kd means the free concentration of one partner at which half of the binding sites on the other are occupied at equilibrium, for simple one-to-one binding. Usually koff stands for a measure of how fast the partners let go of each other. Usually kon stands for the second-order rate constant of association. In general, EC50 refers to the concentration that produces a half-maximal response.
